Measured values published in patent US20090280138A1 (OXFORD BIOMEDICA UK, published 2009).

Key:
[1] = target: T1, MHC class I molecule HLA-A*0201 (iTopia plate-bound monomer) (biotin (bound to streptavidin-coated plate)); test: iTopia off-rate assay, 37 C; fit R^2 0.94
T1 construct: also called A2
Protocol: (§1) The 9 mers were tested for Peptide Binding, Off Rate and Affinity using iTopia Epitope Discovery System in accordance with the manufacturer's instructions. Briefly, 96 well microtitre plates coated with MHC molecules representing different MHC alleles are used to identify candidate peptides. […] Determinations are performed in duplicate using an ELISA plate reader and included allele specific positive controls.
(§2) A one-phase exponential decay curve, with a plateau given equal to 0, was generated using GraphPad Prism® software, which calculated the t1/2 and goodness-of-fit, as measured by r², for each peptide.

[2] = target: T1, MHC class I molecule HLA-A*0201 (iTopia …); test: iTopia off-rate assay, 37 C; fit R^2 0.97
Protocol: as §1, §2

[3] = target: T1, MHC class I molecule HLA-A*0201 (iTopia …); test: iTopia off-rate assay, 37 C; fit R^2 0.81
Protocol: as §1, §2

[4] = target: T1, MHC class I molecule HLA-A*0201 (iTopia …); test: iTopia off-rate assay, 37 C; fit R^2 0.91
Protocol: as §1, §2

[5] = target: T1, MHC class I molecule HLA-A*0201 (iTopia …); test: iTopia off-rate assay, 37 C; fit R^2 0.78
Protocol: as §1, §2

[6] = target: T1, MHC class I molecule HLA-A*0201 (iTopia …); test: iTopia off-rate assay, 37 C; fit R^2 0.84
Protocol: as §1, §2

[7] = target: T1, MHC class I molecule HLA-A*0201 (iTopia …); test: iTopia off-rate assay, 37 C; fit R^2 0.9
Protocol: as §1, §2

[8] = target: T1, MHC class I molecule HLA-A*0201 (iTopia …); test: iTopia off-rate assay, 37 C; fit R^2 0.87
Protocol: as §1, §2

[9] = target: T1, MHC class I molecule HLA-A*0201 (iTopia …); test: iTopia off-rate assay, 37 C; fit R^2 0.75
Protocol: as §1, §2

[10] = target: T1, MHC class I molecule HLA-A*0201 (iTopia …); test: iTopia off-rate assay, 37 C; fit R^2 0.77
Protocol: as §1, §2

[11] = target: T2, MHC class I molecule HLA-A*0301 (iTopia plate-bound monomer) (biotin (bound to streptavidin-coated plate)); test: iTopia off-rate assay, 37 C; fit R^2 0.96
T2 construct: also called A3
Protocol: as §1, §2

[12] = target: T1, MHC class I molecule HLA-A*0201 (iTopia …); test: iTopia off-rate assay, 37 C; fit R^2 0.98
Protocol: as §1, §2

[13] = target: T1, MHC class I molecule HLA-A*0201 (iTopia …); test: iTopia off-rate assay, 37 C; fit R^2 0.89
Protocol: as §1, §2

[14] = target: T1, MHC class I molecule HLA-A*0201 (iTopia …); test: iTopia off-rate assay, 37 C; fit R^2 0.63
Protocol: as §1, §2

B1: 5T4 9-mer peptide 56 FARRPPLAE (peptide)
peptide: FARRPPLAE
notes: also called Peptide No 56
- t½ half life [1]: 0.3 h

B2: 5T4 9-mer peptide 18 TSSASSFSS (peptide)
peptide: TSSASSFSS
notes: also called Peptide No 18
- t½ half life [2]: 0.7 h

B3: 5T4 9-mer peptide 32 PALCECSEA (peptide)
peptide: PALCECSEA
notes: also called Peptide No 32
- t½ half life [3]: 2.2 h

B4: 5T4 9-mer peptide 78 ADLSPFAFS (peptide)
peptide: ADLSPFAFS
notes: it stands between 77 and 79; also called Peptide No 78
- t½ half life [4]: 2.6 h

B5: 5T4 9-mer peptide 89 ELILNHIVP (peptide)
peptide: ELILNHIVP
notes: also called Peptide No 89
- t½ half life [5]: 1.1 h

B6: 5T4 9-mer peptide 64 GSRLDEVRA (peptide)
peptide: GSRLDEVRA
notes: also called Peptide No 64
- t½ half life [1]: 1.9 h

B7: 5T4 9-mer peptide 70 EHLPSLRQL (peptide)
peptide: EHLPSLRQL
notes: also called Peptide No 70
- t½ half life [6]: 1.4 h

B8: 5T4 9-mer peptide 136 KVLHNGTLA (peptide)
peptide: KVLHNGTLA
notes: also called Peptide No 136
- t½ half life [5]: 2.2 h

B9: 5T4 9-mer peptide 102 LLAGRALQG (peptide)
peptide: LLAGRALQG
notes: also called Peptide No 102
- t½ half life [7]: 1.4 h

B10: 5T4 9-mer peptide 96 QNRSFEGMV (peptide)
peptide: QNRSFEGMV
notes: also called Peptide No 96
- t½ half life [8]: 2.4 h

B11: 5T4 9-mer peptide 154 TWLKETEVV (peptide)
peptide: TWLKETEVV
- t½ half life [9]: 6.4 h

B12: 5T4 9-mer peptide 141 LQGLPHIRV (peptide)
peptide: LQGLPHIRV
notes: also called Peptide No 141
- t½ half life [8]: 1.1 h

B13: 5T4 9-mer peptide 29 PLPDQCPAL (peptide)
peptide: PLPDQCPAL
notes: also called Peptide No 29
- t½ half life [10]: 2.8 h

B14: 5T4 9-mer peptide 6 AGDGRLRLA (peptide)
peptide: AGDGRLRLA
notes: also called Peptide No 6
- t½ half life [1]: 0.1 h

B15: 5T4 9-mer peptide 147 NNPWVCDCH (peptide)
peptide: NNPWVCDCH
notes: also called Peptide No 147
- t½ half life [11]: 0.2 h

B16: 5T4 9-mer peptide 41 NLTEVPTDL (peptide)
peptide: NLTEVPTDL
notes: also called Peptide No 41
- t½ half life [12]: 1.4 h

B17: 5T4 9-mer peptide 46 AYVRNLFLT (peptide)
peptide: AYVRNLFLT
notes: also called Peptide No 46
- t½ half life [10]: 6.8 h

B18: 5T4 9-mer peptide 22 SSAPFLASA (peptide)
peptide: SSAPFLASA
notes: also called Peptide No 22
- t½ half life [12]: 1.3 h

B19: 5T4 9-mer peptide 167 VLLELNSAD (peptide)
peptide: VLLELNSAD
notes: also called Peptide No 167
- t½ half life [3]: 0.8 h

B20: 5T4 9-mer peptide 151 HMADMVTWL (peptide)
peptide: HMADMVTWL
- t½ half life [6]: 7.9 h

B21: 5T4 9-mer peptide 26 AVSAQPPLP (peptide)
peptide: AVSAQPPLP
notes: also called Peptide No 26
- t½ half life [13]: 1.7 h

B22: 5T4 9-mer peptide 48 NLFLTGNQL (peptide)
peptide: NLFLTGNQL
notes: also called Peptide No 48
- t½ half life [12]: 0.5 h

B23: 5T4 9-mer peptide 139 TLAELQGLP (peptide)
peptide: TLAELQGLP
- t½ half life [13]: 0.7 h

B24: 5T4 9-mer peptide 14 GWVSSSSPT (peptide)
peptide: GWVSSSSPT
notes: also called Peptide No 14
- t½ half life [1]: 1 h

B25: 5T4 9-mer peptide 88 LVELILNHI (peptide)
peptide: LVELILNHI
notes: also called Peptide No 88
- t½ half life [6]: 0.3 h

B26: 5T4 9-mer peptide 87 SPLVELILN (peptide)
peptide: SPLVELILN
notes: also called Peptide No 87
- t½ half life [14]: 2.4 h

B27: 5T4 9-mer peptide 166 NRVLLELNS (peptide)
peptide: NRVLLELNS
notes: also called Peptide No 166
- t½ half life [14]: 1.3 h

B28: 5T4 9-mer peptide 24 FLASAVSAQ (peptide)
peptide: FLASAVSAQ
notes: also called Peptide No 24
- t½ half life [2]: 0.7 h

B29: 5T4 9-mer peptide 153 MVTWLKETE (peptide)
peptide: MVTWLKETE
notes: also called Peptide No 153
- t½ half life [9]: 1.2 h

B30: 5T4 9-mer peptide 19 SASSFSSSA (peptide)
peptide: SASSFSSSA
notes: also called Peptide No 19
- t½ half life [4]: 0.2 h
